The values below come from patent US20230036503A1, “Fusion Protein, Amino Acid Sequence Thereof, Coding Nucleotide Sequence Thereof, Preparation Method Thereof and Use Thereof” (priority 2019, published 2023).

This test deals with Fusarium graminearum. The format is in vivo. The note with it: corn leaves, 100 nM.

B1: His-MP7: heptapeptide fusion protein, SEQ ID NO: 15: elf18, csp22, flg22, flgII-28, nlp20, pep1, pip1 in sequence, linkers GAG and AGA, HIS tag (protein)
chain: MGSSHHHHHHSSGLVPRGSHMASMTGGQQMGRDPNSSSVDKLSKEKFERTKPHVNVGTIGGAGAVGTVKWFNAEKGFGFITPDDGAGAQRLSTGSRINSAKDDAAGLQIAGAGESTNILQRMRELAVQSRNDSNSATDREAGAGAIMYSWYFPKDSPVTGLGHRAGAATKVKAKQRGKEKVSSGRPGQHNAGARLASGPSPRGRGH
modifications: his-MP7
In turn, B1 showed a scab area percentage (3-4 days, untreated 12.3%) of 3.6%. Besides, the “infection rate of Fusarium graminearum lowered by” value (versus untreated) is reported as 70.8%.
